Where “and” joins values, the source holds several entries; their conditions need not be identical. Equal values may be shown once.
B1: full-length NC1 domain of murine collagen XVIII (domain or fragment)
chain: AGQVRIWATYQTMLDKIREVPEGWLIFVAEREELYVRVRNGFRKVLLEARTALPRGTGNEVAALQPPLVQLHEGSPYTRREYSYSTARPWRADDILANPPRLPDRQPYPGVPHHHSSYVHLPPARPTLSLAHTHQDFQPVLHLVALNTPLSGGMRGIRGADFQCFQQARAVGLSGTFRAFLSSRLQDLYSIVRRADRGSVPIVNLKDEVLSPSWDSLFSGSQGQLQPGARIFSFDGRDVLRHPAWPQKSVWHGSDPSGRRLMESYCETWRTETTGATGQASSLLSGRLLEQKAASCHNSYIVLCIENSFMTSFSK
B2: full-length NC1 domain of murine collagen XV (domain or fragment)
chain: NLVTALSDMGDMLQKAHLVIEGTFIYLRDSGEFFIRVRDGWKKLQLGELIPIPADSPPPPALSSNPYQPQPPLNPILSANYERPVLHLVALNTPVAGDIRADFQCFQQARAAGLLSTFRAFLSSHLQDLSTVVRKAERFGLPIVNLKGQVLFNNWDSIFSGDGGQFNTHIPIYSFDGRDVMTDPSWPQKVVWHGSNPHGVRLVDKYCEAWRTTDMAVTGFASPLSTGKILDQKAYSCANRLIVLCIENSFMTDTRK
B3: NC1(54) peptide of human collagen XVIII (domain or fragment)
chain: GSSGVRLWATRQAMLGQVHEVPEGWLIFVAEQEELYVRVQNGFRKVQLEARTPLPR

What was measured:
AUC = biological target: the molecule itself; experiment: AUC
[1] = biological target: the molecule itself; experiment: GdmCl-induced equilibrium unfolding-refolding monitored by CD

Row | Protein | stoichiometry N (AUC) | Keq ([U]^3/[N], native trimer to unfolded monomers, in water) [1] [mol^2]
1 | B1 | 2.56 | 
2 | B2 | 3.11 and 3.6 | 
3 | B3 |  | 2.4e-21
